Experiments:
[1] = test system: HeLa Kyoto; assay: solubility change mitosis vs G1/S (difference of NP-40 vs SDS log2 ratios) (log2 ratio difference); higher = more soluble in mitosis
[2] = test system: HeLa Kyoto; assay: thermal stability score vs G1/S (z-score of summed log2 fold changes over temperatures); higher = more thermally stable than in G1/S
[3] = test system: HeLa Kyoto; assay: melting temperature (median over replicates), in situ; higher = more thermally stable
[4] = test system: HeLa Kyoto; assay: solubility in G1/S (NP-40 vs SDS abundance) (log2 ratio); higher = more soluble; conditions: cell cycle stage: G1/S
[5] = cell cycle stage: early G1 (4.5 h after nocodazole release)
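For melting temperature (median over replicates), in situ in this document: HeLa Kyoto cells synchronized by double thymidine or nocodazole block, proteins quantified by TMT10plex mass spectrometry, three independent biological replicates.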
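For solubility change mitosis vs G1/S (difference of NP-40 vs SDS log2 ratios) in this document: synchronized HeLa Kyoto cells (double thymidine block for G1/S, nocodazole release for mitosis), protein amounts in NP-40 versus SDS lysates quantified by mass spectrometry, three biological replicates.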
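For solubility in G1/S (NP-40 vs SDS abundance) in this document: HeLa Kyoto cells arrested at G1/S by double thymidine block, proteins quantified by TMT10plex mass spectrometry in mild NP-40 versus SDS extracts, three biological replicates.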
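For thermal stability score vs G1/S (z-score of summed log2 fold changes over temperatures) in this document: synchronized HeLa Kyoto cells, proteins quantified by TMT10plex mass spectrometry, three biological replicates, mitosis taken 0.5 h after nocodazole release, G1/S directly after double thymidine block.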

| Sequence | solubility change mitosis (log2) [1] | thermal stability score [2, 5] | thermal stability score ([2]; cell cycle stage: mitosis) | melting temperature ([3]; cell cycle stage: G1/S) | melting temperature ([3]; cell cycle stage: mitosis) | solubility in G1/S (log2) [4] |
| --- | --- | --- | --- | --- | --- | --- |
| MVMKASVDDDDSGWELSMPEKMEKSNTNWVDITQDFEEACRELKLGELLHDKLFGLFEAMSAIEMMDPKMDAGMIGNQVNRKVLNFEQAIKDGTIKIKDLTLPELIGIMDTCFCCLITWLEGHSLAQTVFTCLYIHNPDFIEDPAMKAFALGILKICDIAREKVNKAAVFEEEDFQSMTYGFKMANSVTDLRVTGMLKDVEDDMQRRVKSTRSRQGEERDPEVELEHQQCLAVFSRVKFTRVLLTVLIAFTKKETSAVAEAQKLMVQAADLLSAIHNSLHHGIQAQNDTTKGDHPIMMGFEPLVNQRLLPPTFPRYAKIIKREEMVNYFARLIDRIKTVCEVVNLTNLHCILDFFCEFSEQSPCVLSRSLLQTTFLVDNKKVFGTHLMQDMVKDALRSFVSPPVLSPKCYLYNNHQAKDCIDSFVTHCVRPFCSLIQIHGHNRARQRDKLGHILEEFATLQDEAEKVDAALHTMLLKQEPQRQHLACLGTWVLYHNLRIMIQYLLSGFELELYSMHEYYYIYWYLSEFLYAWLMSTLSRADGSQMAEERIMEEQQKGRSSKKTKKKKKVRPLSREITMSQAYQNMCAGMFKTMVAFDMDGKVRKPKFELDSEQVRYEHRFAPFNSVMTPPPVHYLQFKEMSDLNKYSPPPQSPELYVAASKHFQQAKMILENIPNPDHEVNRILKVAKPNFVVMKLLAGGHKKESKVPPEFDFSAHKYFPVVKLV [NAA35] | -0.198 | 0.213 | 0.348 | 51.5 °C | 51 °C | -0.305 |
| MVPSSPAVEKQVPVEPGPDPELRSWRHLVCYLCFYGFMAQIRPGESFITPYLLGPDKNFTREQVTNEITPVLSYSYLAVLVPVFLLTDYLRYTPVLLLQGLSFVSVWLLLLLGHSVAHMQLMELFYSVTMAARIAYSSYIFSLVRPARYQRVAGYSRAAVLLGVFTSSVLGQLLVTVGRVSFSTLNYISLAFLTFSVVLALFLKRPKRSLFFNRDDRGRCETSASELERMNPGPGGKLGHALRVACGDSVLARMLRELGDSLRRPQLRLWSLWWVFNSAGYYLVVYYVHILWNEVDPTTNSARVYNGAADAASTLLGAITSFAAGFVKIRWARWSKLLIAGVTATQAGLVFLLAHTRHPSSIWLCYAAFVLFRGSYQFLVPIATFQIASSLSKELCALVFGVNTFFATIVKTIITFIVSDVRGLGLPVRKQFQLYSVYFLILSIIYFLGAMLDGLRHCQRGHHPRQPPAQGLRSAAEEKAAQALSVQDKGLGGLQPAQSPPLSPEDSLGAVGPASLEQRQSDPYLAQAPAPQAAEFLSPVTTPSPCTLCSAQASGPEAADETCPQLAVHPPGVSKLGLQCLPSDGVQNVNQ [SLC19A1] | -0.0504 | -3.67 | -3.7 | 57 °C | 54.9 °C | 0.075 |
| MVQKESQATLEERESELSSNPAASAGASLEPPAAPAPGEDNPAGAGGAAVAGAAGGARRFLCGVVEGFYGRPWVMEQRKELFRRLQKWELNTYLYAPKDDYKHRMFWREMYSVEEAEQLMTLISAAREYEIEFIYAISPGLDITFSNPKEVSTLKRKLDQVSQFGCRSFALLFDDIDHNMCAADKEVFSSFAHAQVSITNEIYQYLGEPETFLFCPTEYCGTFCYPNVSQSPYLRTVGEKLLPGIEVLWTGPKVVSKEIPVESIEEVSKIIKRAPVIWDNIHANDYDQKRLFLGPYKGRSTELIPRLKGVLTNPNCEFEANYVAIHTLATWYKSNMNGVRKDVVMTDSEDSTVSIQIKLENEGSDEDIETDVLYSPQMALKLALTEWLQEFGVPHQYSSRQVAHSGAKASVVDGTPLVAAPSLNATTVVTTVYQEPIMSQGAALSGEPTTLTKEEEKKQPDEEPMDMVVEKQEETDHKNDNQILSEIVEAKMAEELKPMDTDKESIAESKSPEMSMQEDCISDIAPMQTDEQTNKEQFVPGPNEKPLYTAEPVTLEDLQLLADLFYLPYEHGPKGAQMLREFQWLRANSSVVSVNCKGKDSEKIEEWRSRAAKFEEMCGLVMGMFTRLSNCANRTILYDMYSYVWDIKSIMSMVKSFVQWLGCRSHSSAQFLIGDQEPWAFRGGLAGEFQRLLPIDGANDLFFQPPPLTPTSKVYTIRPYFPKDEASVYKICREMYDDGVGLPFQSQPDLIGDKLVGGLLSLSLDYCFVLEDEDGICGYALGTVDVTPFIKKCKISWIPFMQEKYTKPNGDKELSEAEKIMLSFHEEQEVLPETFLANFPSLIKMDIHKKVTDPSVAKSMMACLLSSLKANGSRGAFCEVRPDDKRILEFYSKLGCFEIAKMEGFPKDVVILGRSL [MGEA5] | -0.112 | -1.09 | -0.671 | 52.8 °C | 52.4 °C | -0.0358 |
| MVRGRISRLSVRDVRFPTSLGGHGADAMHTDPDYSAAYVVIETDAEDGIKGCGITFTLGKGTEVVVCAVNALAHHVLNKDLKDIVGDFRGFYRQLTSDGQLRWIGPEKGVVHLATAAVLNAVWDLWAKQEGKPVWKLLVDMDPRMLVSCIDFRYITDVLTEEDALEILQKGQIGKKEREKQMLAQGYPAYTTSCAWLGYSDDTLKQLCAQALKDGWTRFKVKVGADLQDDMRRCQIIRDMIGPEKTLMMDANQRWDVPEAVEWMSKLAKFKPLWIEEPTSPDDILGHATISKALVPLGIGIATGEQCHNRVIFKQLLQAKALQFLQIDSCRLGSVNENLSVLLMAKKFEIPVCPHAGGVGLCELVQHLIIFDYISVSASLENRVCEYVDHLHEHFKYPVMIQRASYMPPKDPGYSTEMKEESVKKHQYPDGEVWKKLLPAQEN [ENOSF1] | -0.108 | -0.19 | -1.12 | 54.7 °C | 55.1 °C | 0.0883 |
| MVRKPVVSTISKGGYLQGNVNGRLPSLGNKEPPGQEKVQLKRKVTLLRGVSIIIGTIIGAGIFISPKGVLQNTGSVGMSLTIWTVCGVLSLFGALSYAELGTTIKKSGGHYTYILEVFGPLPAFVRVWVELLIIRPAATAVISLAFGRYILEPFFIQCEIPELAIKLITAVGITVVMVLNSMSVSWSARIQIFLTFCKLTAILIIIVPGVMQLIKGQTQNFKDAFSGRDSSITRLPLAFYYGMYAYAGWFYLNFVTEEVENPEKTIPLAICISMAIVTIGYVLTNVAYFTTINAEELLLSNAVAVTFSERLLGNFSLAVPIFVALSCFGSMNGGVFAVSRLFYVASREGHLPEILSMIHVRKHTPLPAVIVLHPLTMIMLFSGDLDSLLNFLSFARWLFIGLAVAGLIYLRYKCPDMHRPFKVPLFIPALFSFTCLFMVALSLYSDPFSTGIGFVITLTGVPAYYLFIIWDKKPRWFRIMSEKITRTLQIILEVVPEEDKL [SLC7A11] | -0.169 | 0.372 | 0.123 | – | 57.5 °C | -0.0116 |
| MVRPVRHKKPVNYSQFDHSDSDDDFVSATVPLNKKSRTAPKELKQDKPKPNLNNLRKEEIPVQEKTPKKRLPEGTFSIPASAVPCTKMALDDKLYQRDLEVALALSVKELPTVTTNVQNSQDKSIEKHGSSKIETMNKSPHISNCSVASDYLDLDKITVEDDVGGVQGKRKAASKAAAQQRKILLEGSDGDSANDTEPDFAPGEDSEDDSDFCESEDNDEDFSMRKSKVKEIKKKEVKVKSPVEKKEKKSKSKCNALVTSVDSAPAAVKSESQSLPKKVSLSSDTTRKPLEIRSPSAESKKPKWVPPAASGGSRSSSSPLVVVSVKSPNQSLRLGLSRLARVKPLHPNATST [RAD51AP1] | 0.203 | 1.26 | 7.25 | 53.8 °C | 58 °C | 0.0638 |
| MVSHSELRKLFYSADAVCFDVDSTVIREEGIDELAKICGVEDAVSEMTRRAMGGAVPFKAALTERLALIQPSREQVQRLIAEQPPHLTPGIRELVSRLQERNVQVFLISGGFRSIVEHVASKLNIPATNVFANRLKFYFNGEYAGFDETQPTAESGGKGKVIKLLKEKFHFKKIIMIGDGATDMEACPPADAFIGFGGNVIRQQVKDNAKWYITDFVELLGELEE [PSPH] | -0.049 | -0.555 | -0.969 | 56.6 °C | 58.2 °C | 0.258 |
| MVSIPEYYEGKNVLLTGATGFLGKVLLEKLLRSCPKVNSVYVLVRQKAGQTPQERVEEVLSGKLFDRLRDENPDFREKIIAINSELTQPKLALSEEDKEVIIDSTNIIFHCAATVRFNENLRDAVQLNVIATRQLILLAQQMKNLEVFMHVSTAYAYCNRKHIDEVVYPPPVDPKKLIDSLEWMDDGLVNDITPKLIGDRPNTYIYTKALAEYVVQQEGAKLNVAIVRPSIVGASWKEPFPGWIDNFNGPSGLFIAAGKGILRTIRASNNALADLVPVDVVVNMSLAAAWYSGVNRPRNIMVYNCTTGSTNPFHWGEVEYHVISTFKRNPLEQAFRRPNVNLTSNHLLYHYWIAVSHKAPAFLYDIYLRMTGRSPRMMKTITRLHKAMVFLEYFTSNSWVWNTENVNMLMNQLNPEDKKTFNIDVRQLHWAEYIENYCLGTKKYVLNEEMSGLPAARKHLNKLRNIRYGFNTILVILIWRIFIARSQMARNIWYFVVSLCYKFLSYFRASSTMRY [FAR1] | -0.0436 | 0.0485 | 0.111 | 51.7 °C | 51.2 °C | -0.254 |
| MVSKALLRLVSAVNRRRMKLLLGIALLAYVASVWGNFVNMRSIQENGELKIESKIEEMVEPLREKIRDLEKSFTQKYPPVKFLSEKDRKRILITGGAGFVGSHLTDKLMMDGHEVTVVDNFFTGRKRNVEHWIGHENFELINHDVVEPLYIEVDQIYHLASPASPPNYMYNPIKTLKTNTIGTLNMLGLAKRVGARLLLASTSEVYGDPEVHPQSEDYWGHVNPIGPRACYDEGKRVAETMCYAYMKQEGVEVRVARIFNTFGPRMHMNDGRVVSNFILQALQGEPLTVYGSGSQTRAFQYVSDLVNGLVALMNSNVSSPVNLGNPEEHTILEFAQLIKNLVGSGSEIQFLSEAQDDPQKRKPDIKKAKLMLGWEPVVPLEEGLNKAIHYFRKELEYQANNQYIPKPKPARIKKGRTRHS [UXS1] | -0.193 | 0.535 | -0.237 | 54.6 °C | 54.7 °C | 0.264 |
| MVSRPEPEGEAMDAELAVAPPGCSHLGSFKVDNWKQNLRAIYQCFVWSGTAEARKRKAKSCICHVCGVHLNRLHSCLYCVFFGCFTKKHIHEHAKAKRHNLAIDLMYGGIYCFLCQDYIYDKDMEIIAKEEQRKAWKMQGVGEKFSTWEPTKRELELLKHNPKRRKITSNCTIGLRGLINLGNTCFMNCIVQALTHTPLLRDFFLSDRHRCEMQSPSSCLVCEMSSLFQEFYSGHRSPHIPYKLLHLVWTHARHLAGYEQQDAHEFLIAALDVLHRHCKGDDNGKKANNPNHCNCIIDQIFTGGLQSDVTCQVCHGVSTTIDPFWDISLDLPGSSTPFWPLSPGSEGNVVNGESHVSGTTTLTDCLRRFTRPEHLGSSAKIKCSGCHSYQESTKQLTMKKLPIVACFHLKRFEHSAKLRRKITTYVSFPLELDMTPFMASSKESRMNGQYQQPTDSLNNDNKYSLFAVVNHQGTLESGHYTSFIRQHKDQWFKCDDAIITKASIKDVLDSEGYLLFYHKQFLEYE [USP22] | -0.0588 | 0.773 | 1.56 | 48.1 °C | 49.6 °C | -0.542 |

Reference: the supplement of paper PMC5998384
